Experimental data from publication PMC5839545, “CENP-C/H/I/K/M/T/W/N/L and hMis12 but not CENP-S/X participate in complex formation in the nucleoplasm of living human interphase cells outside centromeres” (PLoS ONE, 2018).

Experiments:
Settings in all cases: partners not purified
mCherry-(s)-Nnf1 = molecular target: T1, mCherry-(s)-Nnf1 (human, UniProt Q6P1K2 1-205); assay: dual color fluorescence cross-correlation spectroscopy (DC-FCCS); EGFP and mCherry fusion proteins co-expressed in living interphase HEp-2 or U2OS cells; spots in the nucleoplasm free of kinetochores, focal volume bleached before; 37°C; 488 and 561 nm; corrected values are the measured ones times about two
T1 construct: Nnf1 of the hMis12 complex, human; source: HEp-2 or U2OS cells, transfected by electroporation, in living cells
T1 sequence (looked up): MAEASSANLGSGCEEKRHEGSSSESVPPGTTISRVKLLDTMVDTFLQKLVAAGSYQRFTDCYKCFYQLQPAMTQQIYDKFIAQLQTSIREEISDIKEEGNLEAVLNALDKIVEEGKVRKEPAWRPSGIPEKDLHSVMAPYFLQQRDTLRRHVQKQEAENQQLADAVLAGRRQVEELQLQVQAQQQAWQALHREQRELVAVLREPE

hMis12-(s)-mCherry = molecular target: T2, hMis12-(s)-mCherry (human, UniProt Q9H081 1-205); assay: as above
T2 construct: hMis12, human; source: HEp-2 or U2OS cells, transfected by electroporation, in living cells; not shown: mCherry (short linker)
T2 sequence (looked up): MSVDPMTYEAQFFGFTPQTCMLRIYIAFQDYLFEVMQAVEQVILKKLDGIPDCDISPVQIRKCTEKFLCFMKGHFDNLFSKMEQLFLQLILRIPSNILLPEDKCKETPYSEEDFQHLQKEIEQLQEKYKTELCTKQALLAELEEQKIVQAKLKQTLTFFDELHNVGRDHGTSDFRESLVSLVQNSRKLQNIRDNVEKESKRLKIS

mCherry-(s)-CENP-T = molecular target: T3, mCherry-(s)-CENP-T (human, UniProt Q96BT3 1-561); assay: as above
T3 construct: CENP-T, human; called wildtype against CENP-T^∆N; source: HEp-2 or U2OS cells (DC-FCCS) and HEK293 cells (SW-FCCS), transfected by electroporation, in living cells

Nnf1-(s)-mCherry = molecular target: T4, Nnf1-(s)-mCherry (human, UniProt Q6P1K2 1-205); assay: as above
T4 construct: Nnf1 of the hMis12 complex, human; source: HEp-2 or U2OS cells, transfected by electroporation, in living cells; not shown: mCherry (short linker)
T4 sequence (looked up): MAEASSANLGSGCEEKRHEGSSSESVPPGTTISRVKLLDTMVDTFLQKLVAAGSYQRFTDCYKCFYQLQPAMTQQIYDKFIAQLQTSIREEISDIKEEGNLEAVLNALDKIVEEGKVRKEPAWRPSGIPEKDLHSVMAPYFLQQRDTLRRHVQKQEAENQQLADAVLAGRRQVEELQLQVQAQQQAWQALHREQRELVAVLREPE

CENP-T-(s)-mCherry = molecular target: T5, CENP-T-(s)-mCherry (human, UniProt Q96BT3 1-561); assay: as above
T5 construct: CENP-T, human; called full-length CENP-T against its N-terminal domain; source: HEp-2 or U2OS cells, transfected by electroporation, in living cells; not shown: mCherry (short linker)

mCherry-(s)-CENP-K = molecular target: T6, mCherry-(s)-CENP-K (human, UniProt Q9BS16 1-269); assay: as above
T6 construct: CENP-K, human; also called mCherry-CENP-K; source: HEp-2 or U2OS cells, transfected by electroporation, in living cells

mCherry-(s)-CENP-W = molecular target: T7, mCherry-(s)-CENP-W (human, UniProt Q5EE01 1-88); assay: single-wavelength fluorescence cross-correlation spectroscopy (SW-FCCS); EGFP and mCherry fusion proteins co-expressed in living interphase HEK293 cells; nucleoplasm; 37°C; 514 nm; effective (apparent) Kd from scatter plot (S) or histogram (H), corrected for non-fluorescent mCherry and observation volumes
T7 construct: CENP-W, human; source: HEp-2 or U2OS cells (DC-FCCS) and HEK293 cells (SW-FCCS), transfected by electroporation, in living cells

mCherry-(s)-Nsl1 = molecular target: T8, mCherry-(s)-Nsl1 (human, UniProt Q96IY1 1-281); assay: dual color fluorescence cross-correlation spectroscopy (DC-FCCS); EGFP and mCherry fusion proteins co-expressed in living interphase HEp-2 or U2OS cells; spots in the nucleoplasm free of kinetochores, focal volume bleached before; 37°C; 488 and 561 nm; corrected values are the measured ones times about two
T8 construct: Nsl1 of the hMis12 complex, human; source: HEp-2 or U2OS cells, transfected by electroporation, in living cells
T8 sequence (looked up): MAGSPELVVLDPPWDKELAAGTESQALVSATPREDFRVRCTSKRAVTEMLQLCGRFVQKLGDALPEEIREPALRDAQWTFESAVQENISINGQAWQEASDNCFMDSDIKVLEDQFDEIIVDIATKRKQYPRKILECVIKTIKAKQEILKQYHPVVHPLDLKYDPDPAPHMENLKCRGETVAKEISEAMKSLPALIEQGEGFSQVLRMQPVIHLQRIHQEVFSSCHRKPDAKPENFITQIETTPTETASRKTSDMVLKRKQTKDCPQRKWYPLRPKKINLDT

T7 sequence (Q5EE01 whole entry, the tested form may be a part): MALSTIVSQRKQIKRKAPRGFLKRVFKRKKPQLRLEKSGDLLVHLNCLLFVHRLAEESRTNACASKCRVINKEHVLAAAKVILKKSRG
T6 sequence (Q9BS16 whole entry): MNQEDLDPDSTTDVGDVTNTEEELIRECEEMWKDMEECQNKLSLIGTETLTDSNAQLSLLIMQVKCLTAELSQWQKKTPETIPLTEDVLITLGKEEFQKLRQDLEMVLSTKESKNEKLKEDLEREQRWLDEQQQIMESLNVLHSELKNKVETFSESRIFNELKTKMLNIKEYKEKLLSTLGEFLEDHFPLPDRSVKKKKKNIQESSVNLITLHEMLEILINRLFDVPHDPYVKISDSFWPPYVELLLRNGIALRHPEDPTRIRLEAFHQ

B1: EGFP-(s)-Nsl1 (natural protein, human, UniProt Q96IY1 1-281, looked up)
chain: MAGSPELVVLDPPWDKELAAGTESQALVSATPREDFRVRCTSKRAVTEMLQLCGRFVQKLGDALPEEIREPALRDAQWTFESAVQENISINGQAWQEASDNCFMDSDIKVLEDQFDEIIVDIATKRKQYPRKILECVIKTIKAKQEILKQYHPVVHPLDLKYDPDPAPHMENLKCRGETVAKEISEAMKSLPALIEQGEGFSQVLRMQPVIHLQRIHQEVFSSCHRKPDAKPENFITQIETTPTETASRKTSDMVLKRKQTKDCPQRKWYPLRPKKINLDT
notes: Nsl1 of the hMis12 complex, human; source: HEp-2 or U2OS cells, transfected by electroporation, in living cells
Question: B1 was tested. Which “cross-correlation, measured (%)” value (mCherry-(s)-Nnf1) did it give?
Answer: Its value is 18%.

B2: Nsl1-(s)-EGFP (natural protein, human, UniProt Q96IY1 1-281, looked up)
chain: MAGSPELVVLDPPWDKELAAGTESQALVSATPREDFRVRCTSKRAVTEMLQLCGRFVQKLGDALPEEIREPALRDAQWTFESAVQENISINGQAWQEASDNCFMDSDIKVLEDQFDEIIVDIATKRKQYPRKILECVIKTIKAKQEILKQYHPVVHPLDLKYDPDPAPHMENLKCRGETVAKEISEAMKSLPALIEQGEGFSQVLRMQPVIHLQRIHQEVFSSCHRKPDAKPENFITQIETTPTETASRKTSDMVLKRKQTKDCPQRKWYPLRPKKINLDT
notes: Nsl1 of the hMis12 complex, human; source: HEp-2 or U2OS cells, transfected by electroporation, in living cells; not shown: EGFP (short linker)
Question: For B2, which “cross-correlation, measured (%)” value (hMis12-(s)-mCherry) is on record?
Answer: The value was 36%.

B3: hMis12-(s)-EGFP (natural protein, human, UniProt Q9H081 1-205, looked up)
chain: MSVDPMTYEAQFFGFTPQTCMLRIYIAFQDYLFEVMQAVEQVILKKLDGIPDCDISPVQIRKCTEKFLCFMKGHFDNLFSKMEQLFLQLILRIPSNILLPEDKCKETPYSEEDFQHLQKEIEQLQEKYKTELCTKQALLAELEEQKIVQAKLKQTLTFFDELHNVGRDHGTSDFRESLVSLVQNSRKLQNIRDNVEKESKRLKIS
notes: hMis12, human; source: HEp-2 or U2OS cells, transfected by electroporation, in living cells; not shown: EGFP (short linker)
Question: Which results are given for B3?
Answer: cross-correlation, measured (%) (mCherry-(s)-CENP-T): 18%; cross-correlation, measured (%) (Nnf1-(s)-mCherry): 31%; cross-correlation, measured (%) (CENP-T-(s)-mCherry): 19%; cross-correlation, measured (%) (mCherry-(s)-CENP-K): 18%

B4: EGFP-(s)-CENP-T^∆N (domain or fragment, human, UniProt Q96BT3 396-561, looked up)
chain: ASPESASSTPESLQARRHHQFLEPAPAPGAAVLSSEPAEPLLVRHPPRPRTTGPRPRQDPHKAGLSHYVKLFSFYAKMPMERKALEMVEKCLDKYFQHLCDDLEVFAAHAGRKTVKPEDLELLMRRQGLVTDQVSLHVLVERHLPLEYRQLLIPCAYSGNSVFPAQ
notes: CENP-T, human, C-terminal domain, aas 396-561, said to contain the histone-fold domain (aas 376-561); also called EGFP-(s)-CENP-T^396-561; source: HEK293 cells, transfected by electroporation, in living cells
Question: For B4, which “dimer, corrected (%)” value (mCherry-(s)-CENP-W) is on record?
Answer: The value was 24%.

Question: What about the “dimer, uncorrected (%)” value (mCherry-(s)-CENP-W) of the same binder?
Answer: Its value is 18.2%.

B5: EGFP-(s)-Dsn1 (natural protein, human, UniProt Q9H410 1-356, looked up)
chain: MTSVTRSEIIDEKGPVMSKTHDHQLESSLSPVEVFAKTSASLEMNQGVSEERIHLGSSPKKGGNCDLSHQERLQSKSLHLSPQEQSASYQDRRQSWRRASMKETNRRKSLHPIHQGITELSRSISVDLAESKRLGCLLLSSFQFSIQKLEPFLRDTKGFSLESFRAKASSLSEELKHFADGLETDGTLQKCFEDSNGKASDFSLEASVAEMKEYITKFSLERQTWDQLLLHYQQEAKEILSRGSTEAKITEVKVEPMTYLGSSQNEVLNTKPDYQKILQNQSKVFDCMELVMDELQGSVKQLQAFMDESTQCFQKVSVQLGKRSMQQLDPSPARKLLKLQLQNPPAIHGSGSGSCQ
notes: Dsn1 of the hMis12 complex, human; source: HEp-2 or U2OS cells, transfected by electroporation, in living cells
Question: Which “cross-correlation, measured (%)” value (hMis12-(s)-mCherry) does the source give for B5 here?
Answer: The value was 32%.

Question: What about the “cross-correlation, measured (%)” value (mCherry-(s)-Nnf1) of the same binder?
Answer: The value was 22%.

Question: What about the “cross-correlation, measured (%)” value (mCherry-(s)-Nsl1) of the same binder?
Answer: Its value is 24%.
